Data on one molecule can be found in US20080182978A1, “ANTI-NGF ANTIBODIES AND METHODS USING SAME” (RINAT NEUROSCIENCE CORP, priority 2002, published 2008).

“Also recorded” adds a separate entry of the source.

Test [1] addresses LIF (Homo sapiens, UniProt P15018). Put plainly: Mouse E17 nodose neuron survival assay, LIF. The class given is cell-based. The following applies: LIF 2.5 nM; antibody up to 200 nM; 48 hours. The protocol: (§1) The ability of antibody E3 to specifically block NGF activity was also evaluated by measurement of the capacity of the antibody to inhibit survival of mouse nodose E17 neurons in the presence of saturating concentrations of BDNF or NT4/5. Survival of nodose neurons is supported by BDNF or NT4/5; therefore, survival of these neurons is a sensitive assay to evaluate the BDNF or NT4/5-blocking ability of the anti-NGF antagonist antibody.
(§2) The survival assay was conducted as follows: time mated pregnant Swiss Webster female mice were euthanised by CO2 inhalation. The uterine horns were removed and the embryos (at embryonic day 17 or 18) were extracted and decapitated. The trigeminal and nodose ganglia were dissected and cleaned. The ganglia were then trypsinised, mechanically dissociated and plated at a density of 100-300 cells per well in defined, serum-free medium in 4-well plates (Greiner) coated with poly-L-ornithine and laminin.
(§3) E17 nodose neurons were grown either in the absence of added neurotrophic factors (negative control), or with saturating concentrations of BDNF (400 pM) (positive control) or NT4/5 (400 pM) or NGF unrelated growth factor […]. High concentrations of neurotrophins were used, as the goal of this experiment was to test specificity of the antibodies. […]

The target in test [2] is T1, BDNF (Homo sapiens, UniProt P23560).
T1 sequence (P23560 129-247): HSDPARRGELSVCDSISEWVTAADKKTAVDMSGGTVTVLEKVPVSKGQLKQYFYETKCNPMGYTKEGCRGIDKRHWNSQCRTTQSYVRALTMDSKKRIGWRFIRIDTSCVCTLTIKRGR
Put plainly: Mouse E17 nodose neuron survival assay, BDNF. It is filed as cell-based. The settings on record: BDNF 400 pM; antibody up to 200 nM; 48 hours. The protocol: as §1, §2, §3

Test [3] has as its target T2, human NGF (Homo sapiens, UniProt P01138). Description: Mouse E17/18 trigeminal neuron survival assay, NGF. It is filed as cell-based. The settings on record: saturating NGF (400 pM); 48 hours. The protocol:
The ability of antibody E3 to specifically block NGF activity was evaluated by measurement of the capacity of the antibody to inhibit survival of mouse E17/18 trigeminal neurons in vitro in the presence of saturating concentrations of NGF, the NGF-related neurotrophin NT3, or the NGF-unrelated neurotrophic factor, macrophage stimulating protein (MSP). The survival of mouse E17/18 trigeminal neurons is a sensitive assay to evaluate the NGF-blocking activity of anti-NGF antagonist antibodies because NGF is required to support survival of these neurons at higher concentrations than the level of NGF required to support survival of E13.5 TG neurons).
as §2
E17/18 trigeminal neurons were grown either without added neurotrophic factors (negative control) or in the presence of saturating concentrations of human NGF (400 pM and 15 pM) (positive control); NT3 (400 pM); or MSP (600 pM). […]

Test [4] addresses T2, human NGF. Description: BIAcore affinity determination assay (kon, koff, KD of purified Fabs). The class given is binding. The settings on record: higher affinity than 911. The protocol:
Affinities of anti-NGF Fabs and monoclonal antibodies were determined using the BIAcore300™ surface plasmon resonance (SPR) system (BIAcore, INC, Piscaway N.J.). CM5 chips were activated with N-ethyl-N′-(3-dimethylaminopropyl)-carbodimide hydrochloride (EDC) and N-hydroxysuccinimide (NHS) according to the supplier's instructions. Human NGF was diluted into 10 mM sodium acetate pH 4.0 and injected over the activated chip at a concentration of 0.005 mg/mL. Using variable flow time across the individual chip channels, two ranges of antigen density were achieved: 100-200 response units (RU) for detailed kinetic studies and 500-600 RU for screening assays. The chip was blocked with ethanolamine. […] HBS-EP buffer (0.01M HEPES, pH 7.4, 0.15 NaCl, 3 mM EDTA, 0.005% Surfactant […]) was used as running buffer for all the BIAcore assays.
Serial dilutions (0.1-10× estimated KD) of purified Fab samples were injected for 1 min at 100 μL/min and dissociation times of up to 2 h were allowed. The concentrations of the Fab proteins were determined by ELISA and/or SDS-PAGE electrophoresis using as a standard a Fab of known concentration (as determined by amino acid analysis). Kinetic association rates (kon) and dissociation rates (koff) were obtained simultaneously by fitting the data to a 1:1 Langmuir binding model (Karlsson, R. Roos, H. Fagerstam, L. Petersson, B. (1994). Methods Enzymology 6. 99-110) using the BIAevaluation program. Equilibrium dissociation constant (KD) values were calculated as koff/kon.
The binding affinities to human NGF of Fabs E3 and 3C were measured using BIAcore analysis according to the manufacturer's instructions and as described above, except that 100 RU NGF was used on chip to prevent a rebinding effect. Briefly, several concentrations of antibodies (Fabs) were injected for 2 minutes onto a CM5 chip with 100 RU of immobilized human NGF on it, and permitted to dissociate for 1800 seconds. Mouse antibody 911 (Fab) was analyzed as a control. Data was analyzed using BIAevaluation software following the manufacturer's instructions. E3 bound human NGF with a KD of approximately 0.07 nM (and with a kon of about 6.0e5 M-1s-1, and a koff of about 4.2e-5s-1).
On the technique in general: Surface plasmon resonance follows binding to a sensor surface in real time, without labels.

T2 sequence (P01138 122-241): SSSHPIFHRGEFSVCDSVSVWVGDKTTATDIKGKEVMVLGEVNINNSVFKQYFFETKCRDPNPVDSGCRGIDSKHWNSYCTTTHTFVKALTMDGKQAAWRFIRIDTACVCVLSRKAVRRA
Sequence of LIF (P15018 23-202, species assumed): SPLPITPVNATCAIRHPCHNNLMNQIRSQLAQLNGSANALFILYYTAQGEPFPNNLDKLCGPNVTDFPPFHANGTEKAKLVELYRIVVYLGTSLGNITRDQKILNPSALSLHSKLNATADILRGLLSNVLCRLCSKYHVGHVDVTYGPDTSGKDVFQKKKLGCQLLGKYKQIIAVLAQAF

B1: E3: humanized, affinity matured anti-NGF antagonist antibody; variable regions SEQ ID NO:1 and 2; human IgG2a (A330P331 to S330S331), kappa (antibody, V domains shown)
VH: QVQLQESGPGLVKPSETLSLTCTVSGFSLIGYDLNWIRQPPGKGLEWIGIIWGDGTTDYNSAVKSRVTISKDTSKNQFSLKLSSVTAADTAVYYCARGGYWYATSYYFDYWGQGTLVTVS
VL: DIQMTQSPSSLSASVGDRVTITCRASQSISNNLNWYQQKPGKAPKLLIYYTSRFHSGVPSRFSGSGSGTDFTFTISSLQPEDIATYYCQQEHTLPYTFGQGTKLEIKRT
modifications: human IgG2a constant (A330S/P331S) and kappa constant missing
B1: the “survival of E17 nodose neurons promoted by LIF” value in test [1] is “had no effect; also recorded: did not inhibit”. In addition, the “survival of E17 nodose neurons promoted by BDNF” value in test [2] was “had no effect; also recorded: did not inhibit”. In test [3], the “survival of E17/18 trigeminal neurons promoted by NGF” value is given as “completely blocked; also recorded: totally blocked”. In test [4], the “binding affinity to human NGF relative to parent mouse antibody 911” value was “approximately 50 fold”.
